Measured values taken from US20100150916A1 (UNIVERSITAET STUTTGART, published 2010).

Experiments:
[1] = molecular target: T1, TNFR2-Fas chimeric receptor (TNFR2-ED and Fas) on mouse embryonic fibroblasts (UniProt P20333 23-257; P25445 191-335); experiment: indirect immunofluorescence flow cytometry on transfected mouse embryonic fibroblasts
T1 construct: extracellular domain;domain: cytoplasmic domain; Stably expressed on mouse embryonic fibroblasts
T1 sequence (looked up): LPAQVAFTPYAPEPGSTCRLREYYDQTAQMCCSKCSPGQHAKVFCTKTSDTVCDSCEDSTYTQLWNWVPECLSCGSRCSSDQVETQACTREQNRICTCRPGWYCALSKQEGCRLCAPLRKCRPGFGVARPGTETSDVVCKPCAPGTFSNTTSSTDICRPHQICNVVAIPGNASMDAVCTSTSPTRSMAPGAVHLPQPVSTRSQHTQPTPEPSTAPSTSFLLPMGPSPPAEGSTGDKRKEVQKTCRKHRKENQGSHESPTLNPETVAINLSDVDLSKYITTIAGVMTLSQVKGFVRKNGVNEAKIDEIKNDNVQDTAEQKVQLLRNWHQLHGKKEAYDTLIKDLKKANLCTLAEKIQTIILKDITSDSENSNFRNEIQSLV
Procedure: These transfectants were incubated on ice for two hours with 2.5 μg/ml of IZI-06.1-Fab (A-C, E, white histograms), the TNFR1-specific antibody mAb225 (D and F, white histograms), the TNFR2-specific antibody 80M2 (B, white+bold histogram) or were only treated with secondary antibodies as control (gray histograms). The incubation buffer was PBA (PBS+0.05% bovine serum albumin+0.02% NaN3). Cells were incubated with FITC-labeled secondary antibodies (80M2 and mAb225: Goat anti-murine IgG; IZI-06.1 Fab: Goat anti-HIS-tag) and cells were analyzed by flow cytometry. Cells were gated for viable cells and total fluorescence intensities (MnX) are given for each antibody. (Con=control values).
A His-tag positive IZI-06.1-Fab is used to determine specificity of TNFR1 binding or TNFR1-Fas binding, respectively as well as for characterization of the epitope recognized by the antibody derivative. […] This construct, however, is readily detected by another TNFR1-specific mab, mab225 (FIG. 7D).

[2] = molecular target: T2, TNFR1-Fas chimeric receptor (extracellular domain of TNFR1 and cytoplasmic domain of death receptor Fas) on … (human, UniProt P19438 30-211; P25445 191-335); experiment: saturation binding of 125I-labelled Fab to TNFR1-Fas positive mouse fibroblasts on ice, one-site hyperbola and Scatchard plot
T2 construct: extracellular domain;domain: cytoplasmic domain; Stably expressed on mouse embryonic fibroblasts; also called TNFR1-Fas chimera
T2 sequence (looked up): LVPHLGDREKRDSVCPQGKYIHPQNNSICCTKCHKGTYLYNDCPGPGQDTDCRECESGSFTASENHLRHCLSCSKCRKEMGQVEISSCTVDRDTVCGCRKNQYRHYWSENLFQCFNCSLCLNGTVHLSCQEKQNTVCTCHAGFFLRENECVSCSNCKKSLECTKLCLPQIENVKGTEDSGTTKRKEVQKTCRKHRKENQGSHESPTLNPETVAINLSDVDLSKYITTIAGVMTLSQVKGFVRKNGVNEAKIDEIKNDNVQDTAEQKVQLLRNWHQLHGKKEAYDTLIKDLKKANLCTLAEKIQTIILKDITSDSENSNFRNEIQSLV
Procedure: Nonspecific binding has been subtracted.
To determine the affinity (KD value) of IZI-06.1 Fab, 200.000 TNFR1-Fas positive cells are incubated on ice for three hours with increasing concentrations of labelled IZI-06.1 (2.5-50 ng in a total volume of 150 μl). As binding buffer, phosphate buffered saline+2% fetal calf serum+0.02% NaN₃ is used. Non-specific binding is determined by co-incubating cells with the 180-fold respective concentration of unlabelled IZI-06.1. Bound ¹²⁵I-Fab is determined with a gamma-counter and resulting data is used to fit a one-site binding hyperbola that contains the saturation binding constant KD: […]

binding result [1]: no binding (tested: 2.5 µg/ml)
B1: IZI-06.1 Fab (Fab, V domains shown)
VH: QVQLVQSGAEVKKPGSSVKVSCKASGYTFTDFYINWVRQAPGQGLEWIGEIYPYSGHAYYNEKFKARVTITADKSTSTAYMELSSLRSEDTAVYYCARWDFLDYWGQGTTVTVSS
VL: DIVMTQSPLSLPVTPGEPASISCRSSQSLLHSNGNTYLHWYLQKPGQSPQLLIYTVSNRFSGVPDRFSGSGSGTDFTLKISRVEAEDVGVYYCSQSTHVPYTFGGGTKVEIKR
modifications: 125I-labelled (chloramine T method) in the saturation binding study
notes: Fab expressed in the E. coli periplasm; the pelB leader is removed; also called humanized H398-Fab; Fab IZI-06.1; not shown: CH1 domain of the human immunoglobulin gamma1 heavy chain
Kd [2]: 0.778 nM
